Results: patent US20200385482A1

B1: Ab-16 (antibody, V domains shown)
VH: EVQLVQSGGGVVQPGRSLRLSCAASGFTFSSYALSWVRQAPGKGLEWVSAISGGGGSTYYADSVKGRFTISRDNSKNTLYLQMNSLRAEDTAVYYCAKDVFPETFSMNYGMDVWGQGTLVTVSS
VL: SSELTQDPAVSVALGQTVRITCQGDSLRSYYASWYQQKPGQAPVLVIYGKNNRPSGIPDRFSGSSSGNTASLTITGAQAEDEADYYCNSRDSSGNHYVFGTGTKVTVL
B2: Ab-31 (antibody, V domains shown)
VH: QVQLVQSGAEVKKPGATVKVSCKVFGDTFRGLYIHWVRQAPGQGLEWMGGIIPIFGTANYAQKFQGRVTITTDESTSTAYMELSSLRSEDTAVYYCASGLRWGIWGWFDPWGQGTLVTVSS
VL: EIVLTQSPATLSLSPGERATLSCRASQSIGNSLAWYQQKPGQAPRLLMYGASSRATGIPDRFSGSGAGTDFTLTISSLEPEDFATYYCQQHTIPTFSFGPGTKVEVK
B3: Ab-52 (antibody, V domains shown)
VH: QVQLQESGGGVVQPGRSLRLSCSASGFTFSRHGMHWVRQAPGKGLEWVAVISHDGSVKYYADSMKGRFSISRDNSNNTLYLQMDSLRADDTAVYYCARGLSYQVSGWFDPWGQGTLVTVSS
VL: NFMLTQPHSVSESPGKTVTISCTRSSGSIASNYVQWYQQRPGSAPTTVIYEDNQRPSGVPDRFSGSIDSSSNSASLTISGLKTEDEADYYCQSYDSTTPSVFGGGTKLTVL

The binders below were run against human C-type lectin domain family 2 member (hCLEC2D) expressed on transfected 300.19 cells (human) (UniProt Q9UHP7) (assay: FACS, hCLEC2D 300.19 cells, assay 1, Ab 1 ug/ml).
Sequence of human C-type lectin domain family 2 member (hCLEC2D) expressed on transfected 300.19 cells (human) (Q9UHP7 whole entry, the tested form may be a part): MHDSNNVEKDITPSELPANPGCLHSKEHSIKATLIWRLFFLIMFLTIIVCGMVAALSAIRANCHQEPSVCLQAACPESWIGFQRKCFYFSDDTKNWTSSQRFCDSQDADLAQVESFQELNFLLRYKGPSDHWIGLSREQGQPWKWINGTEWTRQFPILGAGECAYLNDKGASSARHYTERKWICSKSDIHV

Binder	Cells PE-A Mean [MFI]
B1	898
B2	870
B3	1100

What follows are binders tested against human C-type lectin domain family 2 member (hCLEC2D) expressed on transfected 300.19 cells (human) (UniProt Q9UHP7) (assay: FACS, hCLEC2D 300.19 cells, assay 2, Ab 1 ug/ml).

Binder	Cells PE-A Mean [MFI]
B1	898
B2	870
B3	1100

Each binder was assayed against human C-type lectin domain family 2 member (hCLEC2D) expressed on transfected 300.19 cells (human) (UniProt Q9UHP7) (assay: FACS, hCLEC2D 300.19 cells, assay 1, Ab 0.1 ug/ml).

Binder	Cells PE-A Mean [MFI]
B1	294
B2	360
B3	298

What follows are binders tested against human C-type lectin domain family 2 member (hCLEC2D) expressed on transfected 300.19 cells (human) (UniProt Q9UHP7) (assay: FACS, hCLEC2D 300.19 cells, assay 2, Ab 0.1 ug/ml).

Binder	Cells PE-A Mean [MFI]
B1	294
B2	360
B3	298

Each binder was assayed against human C-type lectin domain family 2 member (hCLEC2D) expressed on transfected 300.19 cells (human) (UniProt Q9UHP7) (assay: FACS, hCLEC2D 300.19 cells, assay 1, Ab 0.01 ug/ml).

Binder	Cells PE-A Mean [MFI]
B1	154
B2	153
B3	166

What follows are binders tested against human C-type lectin domain family 2 member (hCLEC2D) expressed on transfected 300.19 cells (human) (UniProt Q9UHP7) (assay: FACS, hCLEC2D 300.19 cells, assay 2, Ab 0.01 ug/ml).

Binder	Cells PE-A Mean [MFI]
B1	154
B2	153
B3	166

What follows are binders tested against human C-type lectin domain family 2 member (hCLEC2D) expressed on transfected 300.19 cells (human) (UniProt Q9UHP7) (assay: FACS, hCLEC2D 300.19 cells, assay 1, Ab approx 10 ug/ml).

Binder	Cells PE-A Mean [MFI]
B1	2370
B2	2950
B3	3140

The binders below were run against human C-type lectin domain family 2 member (hCLEC2D) expressed on transfected 300.19 cells (human) (UniProt Q9UHP7) (assay: FACS, hCLEC2D 300.19 cells, assay 2, Ab approx 10 ug/ml).

Binder	Cells PE-A Mean [MFI]
B1	2370
B2	2950
B3	3140
